From patent US20230257470A1 (published 2023)

Columns and labels:
human FcγRIIb [1] = molecular target: T1, human FcγRIIb (human, UniProt P31994 43-217, limits assumed); experiment: SPR (Biacore), antibody captured on Protein A chip, FcγR as analyte, 25 C, method of Example 14
T1 construct: Whole entry (AAI46679.1); also called FcγIIB; FcgRIIb
T1 sequence: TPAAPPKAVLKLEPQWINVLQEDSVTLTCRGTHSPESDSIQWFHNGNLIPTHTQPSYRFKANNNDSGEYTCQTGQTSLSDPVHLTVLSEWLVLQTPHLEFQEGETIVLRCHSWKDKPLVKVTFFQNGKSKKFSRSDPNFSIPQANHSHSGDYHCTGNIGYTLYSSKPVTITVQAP

human FcγRIIa type R = molecular target: T2, human FcγRIIa type R (human, UniProt P12318 36-217); experiment: as above
T2 construct: also called FcγRIIaR; FcγRIIa(R)
T2 chain: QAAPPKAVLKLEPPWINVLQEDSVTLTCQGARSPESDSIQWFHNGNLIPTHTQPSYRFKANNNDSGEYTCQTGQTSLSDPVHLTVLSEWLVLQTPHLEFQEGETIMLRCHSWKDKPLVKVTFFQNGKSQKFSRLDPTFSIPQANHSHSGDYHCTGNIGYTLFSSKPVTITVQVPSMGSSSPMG

human FcγRIIb [2] = molecular target: T3, human FcγRIIb (human, UniProt P31994 43-217, limits assumed); experiment: SPR, captured antibody, FcγR as analyte
T3 construct: Soluble analyte in SPR; also called FcgRIIb; FcγIIB
T3 sequence: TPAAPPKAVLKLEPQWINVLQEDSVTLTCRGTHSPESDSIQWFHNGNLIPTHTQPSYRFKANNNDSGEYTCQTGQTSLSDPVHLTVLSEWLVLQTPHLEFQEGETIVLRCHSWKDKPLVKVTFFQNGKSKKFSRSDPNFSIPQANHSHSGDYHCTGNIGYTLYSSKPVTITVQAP

mouse FcγRIII = molecular target: T4, mouse FcγRIII (mouse, UniProt P08508 31-215); experiment: SPR, antibody captured by Protein L, mouse FcγR injected, pH 7.4
T4 construct: Bought protein; construct not described; also called mFcgRIII
T4 sequence (looked up): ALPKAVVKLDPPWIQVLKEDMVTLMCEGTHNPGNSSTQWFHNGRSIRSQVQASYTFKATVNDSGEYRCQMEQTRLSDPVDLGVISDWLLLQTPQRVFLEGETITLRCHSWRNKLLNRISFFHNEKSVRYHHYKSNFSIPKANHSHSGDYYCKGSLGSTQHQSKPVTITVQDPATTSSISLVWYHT

mouse FcγRI = molecular target: T5, mouse FcγRI (mouse, UniProt P26151 25-297); experiment: as above
T5 construct: Bought protein; construct not described; also called mFcgRI
T5 sequence (looked up): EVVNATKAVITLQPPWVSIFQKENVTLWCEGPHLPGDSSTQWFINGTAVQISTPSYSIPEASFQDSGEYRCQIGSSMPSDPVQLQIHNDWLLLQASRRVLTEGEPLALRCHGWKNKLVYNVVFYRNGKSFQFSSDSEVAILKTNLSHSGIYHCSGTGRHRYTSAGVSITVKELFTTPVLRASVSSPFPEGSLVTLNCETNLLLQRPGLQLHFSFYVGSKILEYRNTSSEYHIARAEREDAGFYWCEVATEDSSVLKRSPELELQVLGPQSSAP

mouse FcγRIIb = molecular target: T6, mouse FcγRIIb (mouse, UniProt P08101 40-217, limits assumed); experiment: as above
T6 construct: Bought protein; construct not described; also called mFcgRIIb
T6 sequence (looked up): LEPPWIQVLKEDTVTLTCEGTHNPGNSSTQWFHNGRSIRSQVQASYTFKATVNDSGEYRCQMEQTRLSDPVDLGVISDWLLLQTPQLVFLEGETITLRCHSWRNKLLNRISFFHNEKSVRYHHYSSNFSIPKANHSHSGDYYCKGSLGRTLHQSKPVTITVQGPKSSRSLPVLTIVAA

B1: IL6R-2B261/IL6R-L (antibody, human IgG1, name in EU numbering)
heavy: QVQLQESGPGLVKPSETLSLTCAVSGHSISHDHAWSWVRQPPGEGLEWIGFISYSGITNYNPSLQGRVTISRDNSKNTLYLQMNSLRAEDTAVYYCARSLARTTAMDYWGEGTLVTVSSASTKGPSVFPLAPSSKSTSGGTAALGCLVKDYFPEPVTVSWNSGALTSGVHTFPAVLQSSGLYSLSSVVTVPSSSLGTQTYICNVNHKPSNTKVDKKVEPKSCDKTHTCPPCPAPDLLGGDSVFLFPPKPKDTLMISRTPEVTCVVVDVSHEDPEVKFNWYVDGVEVHNAKTKPREEQDNSTYRVVSVLTVLHQDWLNGKEYKCKVSNKALPAPIEKTISKAKGQPREPQVYTLPPSRDELTKNQVSLTCLVKGFYPSDIAVEWESNGQPENNYKTTPPVLDSDGSFFLYSKLTVDKSRWQQGNVFSCSVMHEALHNHYTQESLSLSP
light: DIQMTQSPSSLSASVGDRVTITCRASQDISSYLNWYQQKPGKAPKLLIYYTSRLHSGVPSRFSGSGSGTDFTFTISSLQPEDIATYYCQQGNTLPYTFGQGTKVEIK
notes: Alterations introduced into IL6R-B3 (EU numbering)
Binder B1 has a Kd (human FcγRIIb [1]) of 10 µM.

B2: IL6R-BF648/IL6R-L (antibody, human IgG1, name in EU numbering)
heavy: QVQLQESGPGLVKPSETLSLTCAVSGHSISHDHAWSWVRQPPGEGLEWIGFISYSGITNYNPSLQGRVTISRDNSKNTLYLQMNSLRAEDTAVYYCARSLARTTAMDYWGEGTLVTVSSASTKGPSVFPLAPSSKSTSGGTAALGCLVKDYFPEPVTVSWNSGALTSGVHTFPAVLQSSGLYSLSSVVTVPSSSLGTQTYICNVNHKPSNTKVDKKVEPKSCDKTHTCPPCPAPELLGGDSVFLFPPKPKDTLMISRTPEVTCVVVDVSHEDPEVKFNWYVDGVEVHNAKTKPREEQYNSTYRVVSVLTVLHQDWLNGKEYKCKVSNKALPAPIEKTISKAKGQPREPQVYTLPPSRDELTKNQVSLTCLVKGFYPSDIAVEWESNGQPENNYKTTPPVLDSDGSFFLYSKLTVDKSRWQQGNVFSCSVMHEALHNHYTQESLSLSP
light: DIQMTQSPSSLSASVGDRVTITCRASQDISSYLNWYQQKPGKAPKLLIYYTSRLHSGVPSRFSGSGSGTDFTFTISSLQPEDIATYYCQQGNTLPYTFGQGTKVEIK
notes: Alteration introduced into IL6R-B3; positions in EU numbering
Binder B2 has a Kd (human FcγRIIb [1]) of 12 µM.

B3: IL6R-BP146/IL6R-L (antibody, human IgG1, name in EU numbering)
heavy: QVQLQESGPGLVKPSETLSLTCAVSGHSISHDHAWSWVRQPPGEGLEWIGFISYSGITNYNPSLQGRVTISRDNSKNTLYLQMNSLRAEDTAVYYCARSLARTTAMDYWGEGTLVTVSSASTKGPSVFPLAPSSKSTSGGTAALGCLVKDYFPEPVTVSWNSGALTSGVHTFPAVLQSSGLYSLSSVVTVPSSSLGTQTYICNVNHKPSNTKVDKKVEPKSCDKTHTCPPCPAPEYLGDDSVFLFPPKPKDTLMISRTPEVTCVVVDVSHEDPEVKFNWYVDGVEVHNAKTKPREEQYNSTYRVVSVLTVLHQDWLNGKEYKCKVSNAALPAPIEKTISKAKGQPREPQVYTLPPSRDELTKNQVSLTCLVKGFYPSDIAVEWESNGQPENNYKTTPPVLDSDGSFFLYSKLTVDKSRWQQGNVFSCSVMHEALHNHYTQESLSLSP
light: DIQMTQSPSSLSASVGDRVTITCRASQDISSYLNWYQQKPGKAPKLLIYYTSRLHSGVPSRFSGSGSGTDFTFTISSLQPEDIATYYCQQGNTLPYTFGQGTKVEIK
notes: as for B1
With B3 the Kd (human FcγRIIa type R) was 21 µM.

B4: IL6R-G1d/IL6R-L (antibody, human IgG1)
heavy: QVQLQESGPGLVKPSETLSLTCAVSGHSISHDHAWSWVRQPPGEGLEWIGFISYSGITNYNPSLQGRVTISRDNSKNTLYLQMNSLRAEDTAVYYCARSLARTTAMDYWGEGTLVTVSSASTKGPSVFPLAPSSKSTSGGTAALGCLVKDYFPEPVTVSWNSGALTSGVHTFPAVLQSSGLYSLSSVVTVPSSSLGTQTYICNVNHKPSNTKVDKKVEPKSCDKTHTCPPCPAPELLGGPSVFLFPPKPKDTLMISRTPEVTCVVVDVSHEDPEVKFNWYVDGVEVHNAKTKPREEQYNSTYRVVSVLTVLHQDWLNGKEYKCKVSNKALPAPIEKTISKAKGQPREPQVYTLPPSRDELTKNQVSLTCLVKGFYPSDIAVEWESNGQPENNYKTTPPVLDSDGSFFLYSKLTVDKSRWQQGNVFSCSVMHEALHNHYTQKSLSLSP
light: DIQMTQSPSSLSASVGDRVTITCRASQDISSYLNWYQQKPGKAPKLLIYYTSRLHSGVPSRFSGSGSGTDFTFTISSLQPEDIATYYCQQGNTLPYTFGQGTKVEIK
notes: Anti-human IL-6 receptor IgG1, G1d constant region; also called IgG1
B4 showed a Kd (human FcγRIIa type R) of 10 µM and a Kd (human FcγRIIb [1]) of 26 µM.

B5: GpH7-B3 variant D265M/GpL16-k0 (antibody, human IgG1)
heavy: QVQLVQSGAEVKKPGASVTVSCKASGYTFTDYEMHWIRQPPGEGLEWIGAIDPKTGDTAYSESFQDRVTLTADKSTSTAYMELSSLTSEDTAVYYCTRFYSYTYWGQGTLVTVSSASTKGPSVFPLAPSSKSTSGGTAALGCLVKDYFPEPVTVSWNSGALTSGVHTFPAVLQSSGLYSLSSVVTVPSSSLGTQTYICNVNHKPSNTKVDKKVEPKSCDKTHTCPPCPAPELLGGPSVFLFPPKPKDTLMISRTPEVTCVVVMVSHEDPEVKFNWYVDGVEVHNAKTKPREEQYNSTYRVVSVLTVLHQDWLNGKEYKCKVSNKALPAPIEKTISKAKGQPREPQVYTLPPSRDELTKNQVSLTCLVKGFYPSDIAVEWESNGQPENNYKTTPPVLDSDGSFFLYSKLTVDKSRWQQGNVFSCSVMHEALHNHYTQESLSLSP
light: DIVMTQSPLSLPVTPGEPASISCQASESLVHSNRNTYLHWYLQKPGQSPQLLIYKVSNRFSGVPDRFSGSGSGTDFTLKISRVEAEDVGVYYCSQNTHVPPTFGQGTKVEIE
notes: copies: 2 + 2
With B5 the relative binding activity (human FcγRIIb [2]) was 2 % of GpH7-B3/GpL16-k0.

B6: GpH7-B3 variant G237R/GpL16-k0 (antibody, human IgG1)
heavy: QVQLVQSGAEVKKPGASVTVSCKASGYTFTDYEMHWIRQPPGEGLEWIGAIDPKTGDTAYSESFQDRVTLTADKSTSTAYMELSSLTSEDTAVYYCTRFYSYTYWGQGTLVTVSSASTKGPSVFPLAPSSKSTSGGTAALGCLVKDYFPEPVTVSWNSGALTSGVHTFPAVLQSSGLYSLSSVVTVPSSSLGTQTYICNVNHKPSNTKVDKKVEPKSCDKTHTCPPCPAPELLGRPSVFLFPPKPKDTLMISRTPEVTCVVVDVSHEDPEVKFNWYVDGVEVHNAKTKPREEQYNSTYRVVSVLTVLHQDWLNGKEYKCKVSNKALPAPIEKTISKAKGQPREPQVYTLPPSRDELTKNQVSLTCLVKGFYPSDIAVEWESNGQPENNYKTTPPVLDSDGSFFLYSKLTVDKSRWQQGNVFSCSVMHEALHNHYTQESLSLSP
light: DIVMTQSPLSLPVTPGEPASISCQASESLVHSNRNTYLHWYLQKPGQSPQLLIYKVSNRFSGVPDRFSGSGSGTDFTLKISRVEAEDVGVYYCSQNTHVPPTFGQGTKVEIE
notes: copies: 2 + 2
B6 was tested, and the relative binding activity (human FcγRIIb [2]) was 1 % of GpH7-B3/GpL16-k0.

B7: VH3/L(WT)-IgG1-F821 (antibody)
heavy: QVQLQESGPGLVKPSETLSLTCAVSGHSISHDHAWSWVRQPPGEGLEWIGFISYSGITNYNPSLQGRVTISRDNSKNTLYLQMNSLRAEDTAVYYCARSLARTTAMDYWGEGTLVTVSSASTKGPSVFPLAPSSKSTSGGTAALGCLVKDYFPEPVTVSWNSGALTSGVHTFPAVLQSSGLYSLSSVVTVPSSSLGTQTYICNVNHKPSNTKVDKKVEPKSCDKTHTCPPCPAPELRGGPKVFLFPPKPKDTLYISRTPEVTCVVVDVSHEDPEVKFNWYVDGVEVHNAKTKPREEQYNSTYRVVSVLTVLHQDWLNGKEYKCKVSNKALPAPIEKTISKAKGQPREPQVYTLPPSRDELTKNQVSLTCLVKGFYPSDIAVEWESNGQPENNYKTTPPVLDSDGSFFLYSKLTVDKSRWQQGNVFSCSVMHEALHYHYTQKSLSLSP
light: not shown
notes: L235R/S239K variant of VH3-IgG1-F11 with L(WT)-CK; also called VH3-IgG1-F821; copies: 2 + 2
B7: no binding (mouse FcγRIII); no binding (mouse FcγRI); no binding (mouse FcγRIIb).
